PMC5814829
Changes are numbered by the printed parent chain.

B1: dsDNA16bp (dsDNA)
DNA 1: CTCTGCTCGACGGATT
DNA 2: AATCCGTCGAGCAGAG

Target: T1, ScPif1p DM (Saccharomyces cerevisiae, UniProt P07271 237-780, E242A;K273A;R281A)
T1 sequence: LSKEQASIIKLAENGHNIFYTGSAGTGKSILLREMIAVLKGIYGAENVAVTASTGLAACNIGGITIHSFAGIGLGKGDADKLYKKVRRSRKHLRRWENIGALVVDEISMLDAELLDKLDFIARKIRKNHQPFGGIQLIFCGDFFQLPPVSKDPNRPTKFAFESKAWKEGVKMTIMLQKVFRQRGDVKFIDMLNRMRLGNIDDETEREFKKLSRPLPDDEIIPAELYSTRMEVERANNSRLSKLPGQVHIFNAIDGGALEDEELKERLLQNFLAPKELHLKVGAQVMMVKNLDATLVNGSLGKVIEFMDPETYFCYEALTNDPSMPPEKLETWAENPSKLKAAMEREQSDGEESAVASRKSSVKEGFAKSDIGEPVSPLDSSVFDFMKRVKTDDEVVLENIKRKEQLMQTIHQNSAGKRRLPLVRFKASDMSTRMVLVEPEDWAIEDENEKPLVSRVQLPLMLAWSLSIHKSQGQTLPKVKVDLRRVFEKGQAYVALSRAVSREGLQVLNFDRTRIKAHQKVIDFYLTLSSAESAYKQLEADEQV
Experiment: fluorescence anisotropy

Row | Binder | Kd [nM]
1 | B1 | 95.5 ± 8.5
2 | AGGGTGGGTGGGTGGGT (structured_DNA) [F-G417] | 23.8 ± 2.5
3 | GTGTGTGTGGTG (ssDNA) [GR12] | 13.4 ± 0.8

Target: T2, ScPif1p E681G (Saccharomyces cerevisiae, UniProt P07271 237-780, E681G)
T2 sequence: T1 sequence with A6E, A37K, A45R, E445G
Experiment: fluorescence anisotropy

Row | Binder | Kd [nM]
4 | B1 | 56.1 ± 11.6
5 | AGGGTGGGTGGGTGGGT (structured_DNA) [F-G417] | 76.5 ± 10.5
6 | GTGTGTGTGGTG (ssDNA) [GR12] | 12.4 ± 3.9

Target: T3, ScPif1p R326C (Saccharomyces cerevisiae, UniProt P07271 237-780, R326C)
T3 sequence: T1 sequence with A6E, A37K, A45R, R90C
Experiment: fluorescence anisotropy

Row | Binder | Kd [nM]
7 | B1 | 78.3 ± 9.6
8 | AGGGTGGGTGGGTGGGT (structured_DNA) [F-G417] | 105 ± 8.4
9 | GTGTGTGTGGTG (ssDNA) [GR12] | 12.4 ± 2.1

Target: T4, ScPif1p R594A/K595A (Saccharomyces cerevisiae, UniProt P07271 237-780, R594A;K595A)
T4 sequence: T1 sequence with A6E, A37K, A45R, R358A, K359A
Experiment: fluorescence anisotropy

Row | Binder | Kd [nM]
10 | B1 | 78.9 ± 9.3
11 | AGGGTGGGTGGGTGGGT (structured_DNA) [F-G417] | 72.9 ± 4.9
12 | GTGTGTGTGGTG (ssDNA) [GR12] | 10.5 ± 3.5
